US20250026849A1 (ARCELLX, published 2025)

T1: CD123 (Homo sapiens (Human), UniProt P26951 19-305, limits assumed)
T1 construct: The CD123 construct used in the ELISA is not described; also called CD123-Signal
T1 sequence: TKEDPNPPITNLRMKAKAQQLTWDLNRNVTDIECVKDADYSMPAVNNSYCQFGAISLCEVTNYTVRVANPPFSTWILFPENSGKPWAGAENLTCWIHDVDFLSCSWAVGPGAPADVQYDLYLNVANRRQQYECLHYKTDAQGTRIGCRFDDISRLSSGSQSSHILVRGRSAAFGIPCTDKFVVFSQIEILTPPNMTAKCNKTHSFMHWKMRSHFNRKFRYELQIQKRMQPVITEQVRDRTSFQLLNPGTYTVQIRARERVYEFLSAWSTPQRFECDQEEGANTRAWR

B1: D domain of SEQ ID NO: 591 (designed binder)
chain: MGSWNEFYERLEAIDRRLFALGGSEAELALFEWMIADFEDDLQMYKGKGNPEVEALINEAGAIGFELEAYRHN
B2: D domain of SEQ ID NO: 603 (designed binder)
chain: MGSWSEFVDRLDAIFDRLWALGGSEAELAWFEDTIAHFEWNLQEYKGKGNPEVEALNGEADAITDELHAYRHN
B3: D domain of SEQ ID NO: 601 (designed binder)
chain: MGSWYEFDDRLWAIFDRLFALGGSEAELAFFEDSIAEFEEELQHYKGKGNPEVEALYLEAWAIENELGAYRHN
B4: D domain of SEQ ID NO: 573 (designed binder)
chain: MGSWYEFDDRLDAIAYRLNALGGSEAELAWFEWEIAEFELDLQWYKGKGNPEVEALVWEADAIEWELEAYRHN
B5: D domain of SEQ ID NO: 590 (designed binder)
chain: MGSWEEFHERLDAIDERLEALGGSEAELAFFEDDIASFEDWLQWYKGKGNPEVEALSREADAINFELEAYRHN
B6: D domain of SEQ ID NO: 597 (designed binder)
chain: MGSWYEFYERLWAIDDRLWALGGSEAELAEFEDSIATFEPSLQMYKGKGNPEVEALVAEAWAIFDELAAYRHN
B7: D domain of SEQ ID NO: 583 (designed binder)
chain: MGSWYEFDERLWAIWERLDALGGSEAELAHFEWVIADFENDLQWYKGKGNPEVEALEFEAEAIVTELHAYRHN
B8: D domain of SEQ ID NO: 587 (designed binder)
chain: MGSWDEFYYRLVAITHRLHALGGSEAELAWFEDDIAGFEWDLQTYKGKGNPEVEALYKEAGAIGMELTAYRHN
B9: D domain of SEQ ID NO: 596 (designed binder)
chain: MGSWEEFHWRLGAIDARLEALGGSEAELAWFEDGIADFEAILQDYKGKGNPEVEALDSEAVAIHHELWAYRHN
B10: D domain of SEQ ID NO: 598 (designed binder)
chain: MGSWFEFDQRLDAITFRLWALGGSEAELAEFEDVIALFEYHLQDYKGKGNPEVEALEVEAWAIFHELGAYRHN
B11: D domain of SEQ ID NO: 586 (designed binder)
chain: MGSWEEFYMRLVAIHMRLRALGGSEAELAVFENYIAEFEEYLQYYKGKGNPEVEALTIEADAIGTELGAYRHN
B12: D domain of SEQ ID NO: 574 (designed binder)
chain: MGSWFEFDERLDAIGSRLTALGGSEAELASFEFYIADFEEWLQQYKGKGNPEVEALEWEAFAIDEELGAYRHN
B13: D domain of SEQ ID NO: 579 (designed binder)
chain: MGSWNEFDDRLLAIWGRLDALGGSEAELAFFEEQIAGFEDELQWYKGKGNPEVEALDQEAEAIEKELWAYRHN
B14: D domain of SEQ ID NO: 578 (designed binder)
chain: MGSWYEFDHRLEAIYDRLWALGGSEAELAFFEFDIADFEWDLQSYKGKGNPEVEALFDEAAAIGHELLAYRHN
B15: D domain of SEQ ID NO: 584 (designed binder)
chain: MGSWMEFDYRLEAIWMRLIALGGSEAELADFESSIADFEHHLQSYKGKGNPEVEALEWEAFAIGVELDAYRHN
B16: D domain of SEQ ID NO: 589 (designed binder)
chain: MGSWREFDQRLWAIDWRLEALGGSEAELAMFEWMIATFEDDLQWYKGKGNPEVEALYREAFAIDWELDAYRHN
B17: D domain of SEQ ID NO: 588 (designed binder)
chain: MGSWEEFDTRLLAIFGRLGALGGSEAELALFEMLIAKFEDDLQNYKGKGNPEVEALSEEAFAIDHELGAYRHN
B18: D domain of SEQ ID NO: 595 (designed binder)
chain: MGSWYEFNMRLGAIDDRLQALGGSEAELAWFEDMIAIFEDDLQIYKGKGNPEVEALEQEAAAIHQELWAYRHN
B19: D domain of SEQ ID NO: 585 (designed binder)
chain: MGSWYEFESRLEAIWWRLEALGGSEAELAQFEQYIADFEQHLQWYKGKGNPEVEALDWEADAIWLELQAYRHN
B20: D domain of SEQ ID NO: 577 (designed binder)
chain: MGSWEEFDKRLDAITRRLMALGGSEAELAEFESTIAWFEWDLQEYKGKGNPEVEALDWEAYAIDYELGAYRHN
B21: D domain of SEQ ID NO: 602 (designed binder)
chain: MGSWNEFVERLSAIDHRLWALGGSEAELADFEQQIAEFEIHLQEYKGKGNPEVEALDFEADAIFDELLAYRHN
B22: D domain of SEQ ID NO: 604 (designed binder)
chain: MGSWAEFDSRLDAIAQRLFALGGSEAELAHFEDFIAQFEYSLQEYKGKGNPEVEALSNEADAIFNELKAYRHN
B23: D domain of SEQ ID NO: 593 (designed binder)
chain: MGSWVEFIMRLDAIYERLDALGGSEAELAEFEWHIADFEDHLQWYKGKGNPEVEALFEEADAIWEELWAYRHN
B24: D domain of SEQ ID NO: 582 (designed binder)
chain: MGSWSEFDQRLEAIWNRLDALGGSEAELADFEREIAYFENQLQWYKGKGNPEVEALNNEAFAIVDELGAYRHN
B25: D domain of SEQ ID NO: 580 (designed binder)
chain: MGSWVEFDDRLDAIWERLDALGGSEAELAWFEEQIAVFEHQLQDYKGKGNPEVEALNQEAEAIDLELKAYRHN
B26: D domain of SEQ ID NO: 600 (designed binder)
chain: MGSWYEFWDRLTAIEHRLWALGGSEAELAYFEDSIAHFEGSLQVYKGKGNPEVEALYKEAEAIEWELEAYRHN
B27: D domain of SEQ ID NO: 592 (designed binder)
chain: MGSWTEFTQRLEAIVDRLFALGGSEAELAEFENSIADFEWDLQWYKGKGNPEVEALNREAVAIDNELWAYRHN
B28: D domain of SEQ ID NO: 581 (designed binder)
chain: MGSWTEFDDRLFAIYWRLDALGGSEAELAWFEEVIAEFENDLQVYKGKGNPEVEALDDEAHAISIELEAYRHN
B29: D domain of SEQ ID NO: 576 (designed binder)
chain: MGSWEEFDVRLDAIFNRLWALGGSEAELAEFEFDIAWFEMDLQEYKGKGNPEVEALFDEAEAITNELVAYRHN
B30: D domain of SEQ ID NO: 594 (designed binder)
chain: MGSWNEFLLRLDAIEHRLFALGGSEAELAEFEWEIADFEDDLQWYKGKGNPEVEALVEEAEAIDVELVAYRHN
B31: D domain of SEQ ID NO: 575 (designed binder)
chain: MGSWEEFDQRLDAIDVRLYALGGSEAELAEFEFDIAAFEEWLQLYKGKGNPEVEALNMEAFAITDELCAYRHN
B32: D domain of SEQ ID NO: 599 (designed binder)
chain: MGSWSEFWFRLDAIEDRLWALGGSEAELAEFEDNIALFEYSLQHYKGKGNPEVEALVKEANAIDDELGAYRHN

Molecular target: T1, CD123
Assay: ELISA
Set-up: unit not given here

Point of comparison: B22, ELISA_avg 3.6. Against it:
- B1 — higher, 5.2
- B2 — higher, 5.3
- B3 — higher, 4.7
- B4 — higher, 4.6
- B5 — higher, 4.3
- B6 — the same, 3.6
- B7 — the same, 3.6
- B8 — higher, 5.4
- B9 — lower, 3.3
- B10 — lower, 3.2
- B11 — higher, 4.4
- B12 — higher, 3.8
- B13 — higher, 4.1
- B14 — higher, 4.5
- B15 — lower, 3.1
- B16 — lower, 3.4
- B17 — higher, 6.7
- B18 — higher, 3.8
- B19 — higher, 4.4
- B20 — higher, 4.5
- B21 — lower, 3.2
- B23 — higher, 6.4
- B24 — lower, 3.4
- B25 — higher, 5
- B26 — higher, 4.4
- B27 — higher, 3.9
- B28 — higher, 6.4
- B29 — higher, 4.7
- B30 — lower, 3.2
- B31 — the same, 3.6
- B32 — higher, 4.5
